The target of series [1] is T1, GluA2Qflip AMPA receptor (homomeric, Q/R site unedited) (UniProt P19491-2 P19491-2:22-883). The experiment in a line: inhibition; whole-cell current recording, closed-channel (0.1 mM glutamate), -60 mV, 22 C. Conditions: tags: transiently expressed in HEK-293S cells; chain copies: 4 inferred. An excerpt: Functional Characterization of FN1040 by Whole-Cell Recording. Using whole-cell current recording, we first tested each of the six putative RNA aptamers against GluA2Qflip, the SELEX target. […] To verify this, we tested the aptamer at increasing concentrations against the GluA2Qflip channel expressed in HEK-293 cells (FIG. 1b). On the closed-channel conformation, we observed a linear relationship between the A/A(I) value and the aptamer concentration (FIG. 1b). Using eq 1 (see Data Analysis of Whole-Cell Current Amplitude), we estimated that the inhibition constant, K, for the closed-channel form of GluA2Qflip was 2.3±0.7 μM (FIG. 1b).
T1 sequence (P19491 other isoform, or with tags, fused parts or gaps): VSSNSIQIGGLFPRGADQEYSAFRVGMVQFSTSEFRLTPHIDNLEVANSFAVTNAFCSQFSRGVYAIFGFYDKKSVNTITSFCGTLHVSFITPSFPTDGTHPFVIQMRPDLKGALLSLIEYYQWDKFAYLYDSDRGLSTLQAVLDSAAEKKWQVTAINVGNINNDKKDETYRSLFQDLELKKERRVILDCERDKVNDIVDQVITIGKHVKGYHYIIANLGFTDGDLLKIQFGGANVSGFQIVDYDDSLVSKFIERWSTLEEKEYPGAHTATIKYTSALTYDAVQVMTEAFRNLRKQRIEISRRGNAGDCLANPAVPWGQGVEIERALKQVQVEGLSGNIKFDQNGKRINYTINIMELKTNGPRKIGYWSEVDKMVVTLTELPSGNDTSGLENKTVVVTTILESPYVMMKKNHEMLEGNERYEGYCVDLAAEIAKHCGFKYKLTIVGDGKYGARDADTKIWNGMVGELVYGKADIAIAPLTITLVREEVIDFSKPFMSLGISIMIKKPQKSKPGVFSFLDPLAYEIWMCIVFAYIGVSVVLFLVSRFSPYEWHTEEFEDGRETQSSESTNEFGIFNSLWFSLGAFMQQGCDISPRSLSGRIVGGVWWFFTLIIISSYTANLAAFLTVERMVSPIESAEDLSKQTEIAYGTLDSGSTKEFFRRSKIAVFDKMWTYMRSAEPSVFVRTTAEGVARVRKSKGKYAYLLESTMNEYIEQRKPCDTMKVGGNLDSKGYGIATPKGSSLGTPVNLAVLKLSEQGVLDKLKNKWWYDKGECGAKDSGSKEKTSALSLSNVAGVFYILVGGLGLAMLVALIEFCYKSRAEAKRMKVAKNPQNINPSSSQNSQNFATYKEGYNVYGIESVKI
Whole-Cell Current Recording. […] For recording of the NMDA channels, the intracellular solution contained (in mM) 140 CsCl, 1 MgCl₂, 0.1 EGTA, and 10 HEPES (pH 7.2 adjusted by Mg(OH)₂) and the extracellular solution contained 2 μM of glycine and (in mM) 135 NaCl, 5.4 KCl, 1.8 CaCl₂, 10 glucose and 5 HEPES (pH 7.2 adjusted by NaOH).¹⁰ The glutamate-induced whole-cell current was recorded using an Axopatch-200B amplifier at a cutoff frequency of 2-20 kHz by a built-in, eight-pole Bessel filter and digitized at 5-50 kHz sampling frequency using a Digidata 1322A from Axon Instruments (Molecular Devices, Sunnyvale, Calif.). […]

Series [2] has as its target T1, GluA2Qflip AMPA receptor (homomeric, …). The experiment in a line: competition; homologous competition with 32P-FN1040, nylon filter; 150 mM NaCl, 3 mM KCl, 1 mM CaCl2, 1 mM MgCl2, 10 mM HEPES pH 7.4; 10 ng/ul tRNA; NBQX displaces about 50%, glutamate about 30%, BDZ-f/BDZ-g none. The conditions noted are these: tags: transiently expressed in HEK-293S cells; chain copies: 4 inferred. An excerpt:
Binding Affinity of FN1040 on GluA2Qflip. The binding affinity, Kd, of FN1040 for GluA2Qflip was estimated from a homologous competitive binding experiment. In this experiment, intact GluA2Qflip receptors embedded in HEK-293 cell membrane fragments were mixed with ³²P-labeled or hot FN1040 (see RNA 5′-end Labeled with ³²P.). The unlabeled FN1040 (or cold FN1040) was used to compete with the hot FN1040 for the binding to GluA2Qflip receptors. As shown, the normalized radioactivity as a function of the cold FN1040 was determined (FIG. 1c).
Homologous Competitive Binding Assay. FN1040 was transcribed in a transcription reaction mixture with additional 0.4 μM of ³²P-α-ATP (800 Ci/mmol). The ³²P-FN1040 product was separated by 8M urea PAGE and recovered by electroelution method (Elutrap, GE Health). Before mixing with the cell membrane fragments, the RNA was run through a refolding procedure, i.e. 95° C./3′→50° C./30′→room temperature/30′. The binding mixture contained 0.6 nM of GluA2Qflip receptor, 10 ng/μl of yeast tRNA, 10 nM of ³²P-FN1040, and 0 to 1.5 μM of unlabeled FN1040 in the extracelluar buffer. […] The radioactivity remaining on the filter was counted in a scintillation counter (Beckman LS6500). […] Assuming a one-site binding model, we determined the Kd of the aptamer bound to the receptor by fitting the binding data to eq 2⁵² below, […]

B1: FN1040 (ssRNA)
RNA: GGGAGAAUUCAACUGCCAUCUAGGCACGCUACUGUGAGUGUUGUGAUGGCGGCUGAACGAUCGAAACGGAACUGUAGUACUACAAGCUUCUGGACUCGGU
modifications: 2'-F at all A, C and U; G is 2'-OH
B1 registered an inhibition constant Ki in series [1] of 2300 nM. In series [2], this molecule yielded a dissociation constant (Kd) of 20 nM.

Broadly, the Ki is the dissociation constant of the complex between target and ligand, obtained from inhibition or displacement. Read a low Ki as higher affinity. As usually defined, the Kd is the constant that tells how readily two partners part at equilibrium. A low value points to higher affinity.

(Values after patent US20190010498, “CHEMICALLY MODIFIED AMPA RECEPTOR RNA APTAMERS” (The Research Foundation for the State University of New York, published 2019).)
